Assay results: patent US20180311348A1 (LUDWIG MAXIMILIANS UNIVERSIT T M NCHEN, published 2018)

Experiments:
CD33 [1] = biological target: T1, CD33 (human, UniProt P20138 18-364); assay: calibrated flow cytometry titration on MOLM-13 cells, KD as an avidity value
T1 construct: whole, on cells; Species is stated as human for the transfected lines; also called human CD33; CHO.exCD33
Experimental: (§1) CD33 equilibrium binding constants (KD, as an avidity measurement) of the licMABs and mAb were determined by calibrated flow cytometry analyses as previously described (Benedict et al., 1997; J. Immunol. Methods; 201(2); 223-231). Briefly, MOLM-13 cells were incubated with licMABs or mAb in concentrations ranging from 0.01 to 15 μg/ml and stained with a FITC antiHuman IgG Fc (clone HP6017, BioLegend) secondary antibody by flow cytometry. The instrument was calibrated with 3.0-3.4 μm Rainbow Calibration particles of 8 peaks (BioLegend), the maximum MFI value was set to 100% and all data points were normalized accordingly. The assay was performed in quadruplicates and the values were analyzed by non-linear regression using a one-site specific binding model.

CD33 [2] = biological target: T1, CD33; assay: column 'KD MOLM-13': calibrated flow cytometry on MOLM-13 cells, KD as an avidity value
Experimental: as §1

CD33 [3] = biological target: T1, CD33; assay: calibrated flow cytometry titration on MOLM-13 cells, KD as an avidity value; panel 'KD determination of Fc-engineered licMABs'
Experimental: as §1

CD47 [4] = biological target: T2, CD47 (human, UniProt Q08722 19-323); assay: cell-based or functional assay
CD33 [5] = biological target: T1, CD33; assay: flow cytometry titration on MOLM-13 cells (CD33+ CD47+), KD as an avidity value
CD33 [6] = biological target: T1, CD33; assay: column 'KD MOLM-13': flow cytometry on MOLM-13 cells (CD33+ CD47+), KD as an avidity value
CD47 [7] = biological target: T2, CD47; assay: flow cytometry titration on CHO.exCD47 cells, anti-HIS ALEXA-488 detection, n=3

T1 sequence (P20138 18-364): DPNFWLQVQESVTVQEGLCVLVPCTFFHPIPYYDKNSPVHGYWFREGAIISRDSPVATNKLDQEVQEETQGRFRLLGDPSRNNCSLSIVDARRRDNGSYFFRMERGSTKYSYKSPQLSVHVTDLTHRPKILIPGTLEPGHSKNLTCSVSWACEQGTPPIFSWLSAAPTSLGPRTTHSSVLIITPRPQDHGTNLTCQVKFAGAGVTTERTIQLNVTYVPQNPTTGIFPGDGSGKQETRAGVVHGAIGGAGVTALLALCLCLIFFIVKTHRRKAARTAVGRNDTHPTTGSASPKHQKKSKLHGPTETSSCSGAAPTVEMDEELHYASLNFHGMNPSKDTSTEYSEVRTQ

| Kd (CD33 [1]) [nM] | Kd (CD33 [2]) [nM] | Kd (CD33 [3]) [nM] | EC50 (concentration of half maximum lysis), redirected lysis of MOLM 13 cells by expanded PBMC effector cells, E:T 2:1, 4 h (CD47 [4]) [pM] | Kd (CD33 [5]) [nM] | Kd (CD33 [6]) [nM] | Kd (CD47 [7]) [nM] | Binder |
| --- | --- | --- | --- | --- | --- | --- | --- |
| 3 | 3 |  |  |  |  |  | αCD33 mAB (antibody, human IgG1, Human IgG1/kappa (pFUSE-CHIg-hG1, pFUSE2-CLIg-hk); It was obtained from SIRPα-PreSc-antiCD33 by PreScission cleavage, so residues of the cleavage site may remain at the light chain N-terminus; also called antiCD33 mAb; anti-CD33 mAB (clone hP67.6)) heavy: not shown light: DIQLTQSPSTLSASVGDRVTITCRASESLDNYGIRFLTWFQQKPGKAPKLLMYAASNQGSGVPSRFSGSGSGTEFTLTISSLQPDDFATYYCQQTKEVPWSFGQGTKVEVKVAAPSVFIFPPSDEQLKSGTASVVCLLNNFYPREAKVQWKVDNALQSGNSQESVTEQDSKDSTYSLSSTLTLSKADYEKHKVYACEVTHQGLSSPVTKSFNRGEC |
|  | 2 | 2 |  |  |  |  | Fc-engineered variant of αCD33 mAB (antibody, human IgG1, Same as m7 with the Fc-engineered IgG1 constant region (S239D, I332E); also called Fc-engineered mAB) heavy: not shown light: DIQLTQSPSTLSASVGDRVTITCRASESLDNYGIRFLTWFQQKPGKAPKLLMYAASNQGSGVPSRFSGSGSGTEFTLTISSLQPDDFATYYCQQTKEVPWSFGQGTKVEVKVAAPSVFIFPPSDEQLKSGTASVVCLLNNFYPREAKVQWKVDNALQSGNSQESVTEQDSKDSTYSLSSTLTLSKADYEKHKVYACEVTHQGLSSPVTKSFNRGEC |
|  |  |  | 1.5 | 30 | 30 | 21 | SirpIg-SirpIg-anti-CD16-anti-CD33 liCAD (other) EEELQVIQPDKSVLVAAGETATLRCTATSLIPVGPIQWFRGAGPGRELIYNQKEGHFPRVTTVSDLTKRNNMDFSIRIGNITPADAGTYYCVKFRKGSPDDVEFKSGAGTELSVRAKPSGGGGSGGGGSGGGGSGGGGSEEELQVIQPDKSVLVAAGETATLRCTATSLIPVGPIQWFRGAGPGRELIYNQKEGHFPRVTTVSDLTKRNNMDFSIRIGNITPADAGTYYCVKFRKGSPDDVEFKSGAGTELSVRAKPSGGGGSGGGGSGGGGSGGGGSQVTLKESGPGILQPSQTLSLTCSFSGFSLRTSGMGVGWIRQPSGKGLEWLAHIWWDDDKRYNPALKSRLTISKDTSSNQVFLKIASVDTADTATYYCAQINPAWFAYWGQGTLVTVSAGGGGSGGGGSGGGGSGGGGSDTVLTQSPASLAVSLGQRATISCKASQSVDFDGDSFMNWYQQKPGQPPKLLIYTTSNLESGIPARFSASGSGTDFTLNIHPVEEEDTATYYCQQSNEDPYTFGGGTKLEIKGGGGSGGGGSGGGGSGGGGSDIQLTQSPSTLSASVGDRVTITCRASESLDNYGIRFLTWFQQKPGKAPKLLMYAASNQGSGVPSRFSGSGSGTEFTLTISSLQPDDFATYYCQQTKEVPWSFGQGTKVEVKGGGGSGGGGSGGGGSGGGGSEVQLVQSGAEVKKPGSSVKVSCKASGYTITDSNIHWVRQAPGQSLEWIGYIYPYNGGTDYNQKFKNRATLTVDNPTNTAYMELSSLRSEDTAFYYCVNGNPWLAYWGQGTLVTVSS |
